Laboratory results from PMC3017781, “Structure-function relationships of wheat flavone O-methyltransferase: Homology modeling and site-directed mutagenesis” (BMC Plant Biology, 2010).
Residue numbers refer to the chain shown, from its start. Numbers in names are those of the source.

B1: TaOMT2 (Triticum aestivum) (protein)
chain: MGSIAAGADEDACMYALQLVSSSILPMTLKNAIELGLLETLMAAGGKFLTPAEVAAKLPSAANPEAPDMVDRMLRLLASYNVVSCRTEDGKDGRLSRRYGAAPVCKYLTPNEDGVSMSALALMNQDKVLMESWYYLKDAVLDGGIPFNKAYGMSAFEYHGTDPRFNRVFNEGMKNHSIIITKKLLESYKGFEGLGTLVDVGGGVGATVAAITAHYPTIKGINFDLPHVISEAPPFPGVTHVGGDMFQKVPSGDAILMKWILHDWSDEHCATLLKNCYDALPAHGKVVLVECILPVNPEATPKAQGVFHVDMIMLAHNPGGRERYEREFEALAKGAGFAAMKTTYIYANAWAIEFTK
notes: full length, 356 residues, vector pET200/D-TOPO, expressed in E. coli BL21 (DE3), Ni-NTA purified, tag removal not mentioned; dimer in solution (monomers also active)
B2: TaOMT2 (Triticum aestivum; V309I) (protein)
chain: B1 chain with V309I
notes: as for B1
B3: TaOMT2 (Triticum aestivum; W259A) (protein)
chain: B1 chain with W259A
B4: TaOMT2 (Triticum aestivum; E322I) (protein)
chain: B1 chain with E322I
B5: TaOMT2 (Triticum aestivum; D263N) (protein)
chain: B1 chain with D263N
B6: TaOMT2 (Triticum aestivum; W259Y) (protein)
chain: B1 chain with W259Y
B7: TaOMT2 (Triticum aestivum; G305S) (protein)
chain: B1 chain with G305S

Substrate: O=c1cc(-c2cc(O)c(O)c(O)c2)oc2cc(O)cc(O)c12
Experiment: purified protein
Conditions: co-substrate SAM (AdoMet) 1 mM, 30°C, 15 min

Row | Protein | Km [µM]
1 | B1 | 59.51 ± 0.79
2 | B2 | 101.08 ± 9.68

Same assay, conditions: co-substrate SAM, saturating

Row | Protein | Km [µM]
3 | B3 | 131.0
4 | B4 | 193.17
5 | B5 | 128.2
6 | B6 | 170.1
7 | B7 | 118.41

Substrate: COc1cc(/C=C/C(=O)O)cc(O)c1O
Experiment: radiometric methyltransferase assay with [3H]SAM, Lineweaver-Burk
Assay type: biochemical, Triticum aestivum
Conditions: co-substrate SAM (AdoMet) 1 mM, 30°C, 15 min
From the text: radiometric methyltransferase assay with [3H]SAM, Lineweaver-Burk on TaOMT2

Row | Protein | Km [µM]
8 | B1 | 270.98 ± 11.51
9 | B2 | 18.24 ± 1.72
